± gives the uncertainty stated by the source.
Test: self-splicing fitness, log relative to wild type (ln ratio); higher = more splicing; Tetrahymena group I intron in knt gene, E. coli kanamycin selection, DiMSum; sequences stand for … in CUCUCU…GGAGGGAAAAGUUAUCAGGCAUGCACCUGGUAGCUAGUCUUUAAACCAAUAGAUUGCAUCGGUUUAAAAGGCAAGACCGUCAAAUUGCGGGAAAGGGGUCAACAGCCGUUCAGUACCAAGUCUCAGGGGAAACUUUGAGAUGGCCUUGCAAAGGGUAUGGUAAUAAGCUGACGGACAUGGUCCUAACCACGCAGCCAAGUCCUAAGUCAACAGAUCUUCUGUUGAUAUGGAUGCAGUUCACAGACUAAAUGUCGGUCGGGGAAGAUGUAUUCUUCUCAUAAGAUAUAGUCGGACCUCUCCUUAAUGGGAGCUAGCGGAUGAAGUGAUGCAACACUGGAGCCGCUGGGAACUAAUUUGUAUGCGAAAGUAUAUUGAUUAGUUUUGGAGUACUCGUGGUCG
Procedure, shortened: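 Colonies from six replicate transformations of E. coli BL21(DE3) were pooled and amplicon-sequenced on an Illumina HiSeq 2500. The library placed an intron with all eight P1ex-region nucleotides randomised inside the knt kanamycin-resistance gene on pET-22b(+), and cells grew overnight at 37°C or 30°C on LB agar with or without 25 μg/mL kanamycin (plus 100 μg/mL carbenicillin, 50 μM IPTG, 0.2% rhamnose). Fitness is the DiMSum error-weighted combination of wild-type-normalised replicate fold changes, kanamycin versus none.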

Sequence	self-splicing fitness (ln) (30 °C)	self-splicing fitness (ln) (37 °C)
UAAAAGCAAUAUUACGUGAA	-1.36 ± 0.082	-1.06 ± 0.1
UAAAAGCAAUAUUACGUGAG	-0.888 ± 0.044	-0.622 ± 0.078
UAAAAGCAAUAUUACGUGGU	-3.53 ± 0.13	-2.28 ± 0.14
UAAAAGCAAUAUUACGUUAG	-1.37 ± 0.069	-1.33 ± 0.088
UAAAAGCAAUAUUACGUUCU	-1.87 ± 0.14	-1.13 ± 0.14
UAACAGCAAUAUUACGAAUA	-0.62 ± 0.1	-0.528 ± 0.1
UAACAGCAAUAUUACGAUUG	-1.57 ± 0.056	-0.741 ± 0.082
UAACAGCAAUAUUACGCAAU	-2.89 ± 0.15	-0.816 ± 0.15
UAACAGCAAUAUUACGCCAG	-2.03 ± 0.12	-1.42 ± 0.18
UAACAGCAAUAUUACGCGGC	-3.99 ± 0.28	-2.65 ± 0.35
UAACAGCAAUAUUACGGAGC		-2.58 ± 0.29
UAACAGCAAUAUUACGGCAU	-1.85 ± 0.093	0.0326 ± 0.093
UAACAGCAAUAUUACGGCGC	-2.5 ± 0.13	-1.44 ± 0.13
UAACAGCAAUAUUACGGGAC	-4.36 ± 0.17	-1.89 ± 0.13
UAACAGCAAUAUUACGGGAU	-3.08 ± 0.15	-2.43 ± 0.16
UAACAGCAAUAUUACGGGCG	-0.476 ± 0.064	0.217 ± 0.087
UAACAGCAAUAUUACGGGGC	-3.63 ± 0.19	-2.86 ± 0.24
UAACAGCAAUAUUACGGUGG	-1.67 ± 0.067	-1.06 ± 0.084
UAACAGCAAUAUUACGUACG	-0.675 ± 0.047	-0.193 ± 0.069
UAACAGCAAUAUUACGUAGA	-2.81 ± 0.071	-1.37 ± 0.086
UAACAGCAAUAUUACGUCAG	-1.53 ± 0.073	-0.0779 ± 0.085
UAACAGCAAUAUUACGUCCC	-2.98 ± 0.34	-1.38 ± 0.27
UAACAGCAAUAUUACGUGUC	-4.05 ± 0.14	-2.35 ± 0.13
UAACAGCAAUAUUACGUGUG	-1.23 ± 0.042	-0.692 ± 0.055
UAACAGCAAUAUUACGUGUU	-3.78 ± 0.14	-2.34 ± 0.12

Sequence	self-splicing fitness (ln) (30 °C)	self-splicing fitness (ln) (37 °C)
UAACAGCAAUAUUACGUUAU	-3.22 ± 0.16	-2.96 ± 0.23
UAAGAGCAAUAUUACGAAAG	-3.88 ± 0.31	-1.92 ± 0.23
UAAGAGCAAUAUUACGACCC	-2.18 ± 0.37	
UAAGAGCAAUAUUACGACCG	-2.9 ± 0.35	-2.21 ± 0.25
UAAGAGCAAUAUUACGACCU	-1.34 ± 0.23	
UAAGAGCAAUAUUACGACGC	-2.96 ± 0.32	-2.07 ± 0.43
UAAGAGCAAUAUUACGACUA	-0.436 ± 0.11	0.314 ± 0.11
UAAGAGCAAUAUUACGAUGC	-3.73 ± 0.42	-2.34 ± 0.33
UAAGAGCAAUAUUACGCAAA	-2.38 ± 0.21	-2.44 ± 0.21
UAAGAGCAAUAUUACGCACG	-2.42 ± 0.15	-1.84 ± 0.15
UAAGAGCAAUAUUACGCAGU		-2.38 ± 0.28
UAAGAGCAAUAUUACGCCUA	-2.03 ± 0.15	-1.41 ± 0.12
UAAGAGCAAUAUUACGCGUG	-2.33 ± 0.13	-1.88 ± 0.13
UAAGAGCAAUAUUACGCUAA		-1.77 ± 0.27
UAAGAGCAAUAUUACGCUUC	-3.71 ± 0.25	-2.46 ± 0.25
UAAGAGCAAUAUUACGGAAG	-2.8 ± 0.41	
UAAGAGCAAUAUUACGGCCA	-1.81 ± 0.3	-1.48 ± 0.37
UAAGAGCAAUAUUACGGCGC	-2.68 ± 0.32	-2.01 ± 0.41
UAAGAGCAAUAUUACGGCUG	-1.55 ± 0.12	-0.424 ± 0.18
UAAGAGCAAUAUUACGGUGG	-4.17 ± 0.33	-2.36 ± 0.26
UAAGAGCAAUAUUACGGUGU	-2.19 ± 0.14	-3.27 ± 0.47
UAAGAGCAAUAUUACGGUUC	-2.19 ± 0.21	-2.14 ± 0.46
UAAGAGCAAUAUUACGUAUG	-5.26 ± 0.45	-2.47 ± 0.34
UAAGAGCAAUAUUACGUCAU	-2.21 ± 0.14	-2.22 ± 0.24
UAAGAGCAAUAUUACGUCUA	-0.273 ± 0.093	-0.548 ± 0.1

Sequence	self-splicing fitness (ln) (30 °C)	self-splicing fitness (ln) (37 °C)
UAAGAGCAAUAUUACGUUAU	-3.21 ± 0.44	
UAAUAGCAAUAUUACGAACC	-3.22 ± 0.49	-2.27 ± 0.39
UAAUAGCAAUAUUACGAAUU		-2.58 ± 0.24
UAAUAGCAAUAUUACGACGC	-2.84 ± 0.34	
UAAUAGCAAUAUUACGAUUU	-2 ± 0.11	-1.13 ± 0.11
UAAUAGCAAUAUUACGCCAU	-2.36 ± 0.22	-1.55 ± 0.23
UAAUAGCAAUAUUACGCCUG	-0.203 ± 0.13	-0.254 ± 0.16
UAAUAGCAAUAUUACGCCUU	-3.48 ± 0.21	-1 ± 0.14
UAAUAGCAAUAUUACGCGAC	-3.42 ± 0.35	-1.61 ± 0.34
UAAUAGCAAUAUUACGCUCG	0.447 ± 0.16	0.265 ± 0.18
UAAUAGCAAUAUUACGGCAU	-3.26 ± 0.18	-2.28 ± 0.23
UAAUAGCAAUAUUACGGGCG	-1.45 ± 0.1	-0.567 ± 0.13
UAAUAGCAAUAUUACGUAGC	-2.63 ± 0.35	-2.19 ± 0.26
UAAUAGCAAUAUUACGUCGC	-3.86 ± 0.43	-1.71 ± 0.35
UAAUAGCAAUAUUACGUGAC	-3.71 ± 0.22	-2.78 ± 0.22
UAAUAGCAAUAUUACGUGAG	-1.76 ± 0.088	-1.47 ± 0.12
UAAUAGCAAUAUUACGUGUC	-3.02 ± 0.23	-2.44 ± 0.3
UAAUAGCAAUAUUACGUUGG	-3.11 ± 0.13	-0.991 ± 0.11
UACAAGCAAUAUUACGAAAG	-2.61 ± 0.11	-2.37 ± 0.16
UACAAGCAAUAUUACGAAGU	-4.09 ± 0.42	-1.97 ± 0.24
UACAAGCAAUAUUACGACCC	-2.31 ± 0.46	
UACAAGCAAUAUUACGACGA	-0.323 ± 0.065	0.0319 ± 0.075
UACAAGCAAUAUUACGACUA	-0.188 ± 0.062	0.316 ± 0.083
UACAAGCAAUAUUACGAGAU	-3.65 ± 0.28	-3.07 ± 0.28
UACAAGCAAUAUUACGCACG	-1.29 ± 0.094	0.0257 ± 0.1

Sequence	self-splicing fitness (ln) (30 °C)	self-splicing fitness (ln) (37 °C)
UACAAGCAAUAUUACGCCCA	0.292 ± 0.11	0.261 ± 0.13
UACAAGCAAUAUUACGCGGU	-3.61 ± 0.16	-2.61 ± 0.18
UACAAGCAAUAUUACGCUGC	-2.03 ± 0.19	-0.919 ± 0.32
UACAAGCAAUAUUACGCUGU		-1.65 ± 0.28
UACAAGCAAUAUUACGCUUA	-2.33 ± 0.11	-1.18 ± 0.08
UACAAGCAAUAUUACGCUUC	-4.25 ± 0.42	-3.02 ± 0.25
UACAAGCAAUAUUACGGAUA	-1.38 ± 0.086	-0.839 ± 0.092
UACAAGCAAUAUUACGGCUA	-0.336 ± 0.06	0.201 ± 0.088
UACAAGCAAUAUUACGGCUG	-0.22 ± 0.1	0.307 ± 0.16
UACAAGCAAUAUUACGGUGG	-1.65 ± 0.051	-1.25 ± 0.064
UACAAGCAAUAUUACGUACA	-1.56 ± 0.084	-0.15 ± 0.086
UACAAGCAAUAUUACGUACG	-3.9 ± 0.22	-1.3 ± 0.13
UACAAGCAAUAUUACGUGCA	-0.352 ± 0.083	-0.366 ± 0.1
UACAAGCAAUAUUACGUGCG	-1.05 ± 0.054	-0.158 ± 0.075
UACAAGCAAUAUUACGUGCU	-3.34 ± 0.16	-2.22 ± 0.13
UACAAGCAAUAUUACGUGGG	-3.82 ± 0.21	-3.3 ± 0.24
UACAAGCAAUAUUACGUGGU	-3.29 ± 0.14	-3.27 ± 0.17
UACCAGCAAUAUUACGAAUU	-2.55 ± 0.17	-1.96 ± 0.2
UACCAGCAAUAUUACGACUA	-0.413 ± 0.078	0.638 ± 0.098
UACCAGCAAUAUUACGCCUG	-1.3 ± 0.14	-1.21 ± 0.19
UACCAGCAAUAUUACGCGAA	-0.474 ± 0.063	-0.386 ± 0.086
UACCAGCAAUAUUACGCGUG	0.016 ± 0.081	0.0464 ± 0.099
UACCAGCAAUAUUACGCUGA	-2.43 ± 0.15	-1.21 ± 0.11

Source: the supplement of paper PMC7877785
